Reference: US20090098124A1 (MacroGenics, published 2009)
Where two headings read alike, the source gives them in different places.

Tests used:
[1] = molecular target: soluble dimeric FcγRIIB (extracellular domain fused to hinge-CH2-CH3 of human IgG2) (human) (UniProt P31994); assay: ELISA
[2] = molecular target: soluble monomeric FcγRIIIA (extracellular region joined to linker-AVITAG), allele not stated (human) (UniProt P08637); assay: ELISA
[3] = molecular target: soluble dimeric FcγRIIB (extracellular domain fused to hinge-CH2-CH3 of human IgG2) (human) (UniProt P31994); assay: SPR
[4] = molecular target: soluble monomeric FcγRIIIA (extracellular region joined to linker-AVITAG), allele not stated (human) (UniProt P08637); assay: SPR
[5] = molecular target: soluble monomeric FcγRIIIA (extracellular region joined to linker-AVITAG), allele not stated (human) (UniProt P08637); assay: SPR; remark: listed apart in the source
[6] = molecular target: soluble dimeric FcγRIIB (extracellular domain fused to hinge-CH2-CH3 of human IgG2) (human) (UniProt P31994); assay: SPR; remark: listed apart in the source
[7] = molecular target: soluble FcγRIIIA 158V (human) (UniProt P08637); assay: SPR (BIAcore) steady-state analysis, ch4D5 antibody captured on immobilised ErbB2/Fc-aglycosyl chimera, soluble FcγRIIIA V158 (printed 3aV150) injected at 0.1-[…]
[8] = molecular target: soluble FcγRIIIA 158F (human) (UniProt P08637); assay: SPR (BIAcore) steady-state analysis, ch4D5 antibody captured on immobilised ErbB2/Fc-aglycosyl chimera, soluble FcγRIIIA F158 (printed 3aF150) injected at 0.2-[…]
soluble FcγRIIIA 158F (human), sequence (P08637 17-208): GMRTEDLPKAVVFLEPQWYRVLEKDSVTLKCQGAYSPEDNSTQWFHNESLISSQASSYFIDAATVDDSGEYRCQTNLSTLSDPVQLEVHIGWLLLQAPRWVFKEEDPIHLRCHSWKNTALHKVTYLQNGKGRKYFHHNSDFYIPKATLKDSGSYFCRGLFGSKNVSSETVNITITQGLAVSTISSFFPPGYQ

soluble monomeric FcγRIIIA (extracellular region joined to linker-AVITAG), allele not stated (human), sequence (P08637 17-208): as above
soluble dimeric FcγRIIB (extracellular domain fused to hinge-CH2-CH3 of human IgG2) (human), sequence (P31994 43-217): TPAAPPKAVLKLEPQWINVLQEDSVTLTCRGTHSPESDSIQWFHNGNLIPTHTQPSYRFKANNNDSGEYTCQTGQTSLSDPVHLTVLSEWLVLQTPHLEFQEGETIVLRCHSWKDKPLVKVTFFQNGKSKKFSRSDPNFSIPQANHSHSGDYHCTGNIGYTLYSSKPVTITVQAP

Substance	ELISA OD [1] [OD]	ELISA IIIA binding [2] [fold]	ELISA OD [2] [OD]	Kd [3] [nM]	Kd [4] [nM]	Kd [5] [nM]	Kd [6] [nM]	Kd [7] [nM]	Kd [8] [nM]
ch4-4-20 wild type (antibody)	0.4	1	0.5	94	198	319	61.4	–	–
ch4D5 wild type (IgG1) (antibody)	–	–	–	–	–	–	–	36000	1540
